Assay results taken from US20090208538A1 (ROCKEFELLER UNIVERSITY, published 2009).

Key:
[1] = target: HLA-A2.1/cdr2(290-298) complex (human); assay: cell-based or functional assay
[2] = target: HLA-A*0101 (human); assay: iTopia affinity
[3] = target: HLA-A*0101 (human); assay: iTopia net score
[4] = target: T1, HLA-A*0201 (human); assay: iTopia affinity;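 also: peptide affinity for plate-bound HLA-A2 molecules (iTopia system), with ED50 derived from an eight-point serial peptide dilution series run under binding assay conditions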
T1 construct: also called HLA-A2.1; HLA A2.1

[5] = target: T1, HLA-A*0201; assay: iTopia net score;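 also: combined score from peptide binding, ED₅₀ and half-life of peptide complexes with plate-bound HLA-A2 molecules, computed by a proprietary formula in iTopia software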
[6] = target: T1, HLA-A*0201; assay: iTopia binding;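 also: each peptide tested for binding to HLA-A2 molecules immobilized on plates, using a commercial screening kit run per its supplied protocol and reagents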
[7] = target: HLA-A*0101 (human); assay: iTopia off-rate
[8] = target: T1, HLA-A*0201; assay: iTopia off-rate;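 also: Half-life of peptide complexes with plate-bound HLA-A2, peptides loaded 18 h at 21 C, washed, then held at 37 C over several time points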
[9] = target: HLA-A*2402 (human); assay: iTopia off-rate
[10] = target: HLA-A*2402 (human); assay: iTopia net score;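 also: iScore from iTopia software combining peptide binding, affinity over a dilution series and off-rate after warming to body temperature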
[11] = target: HLA-B*0801 (human); assay: iTopia net score
[12] = target: HLA-A*2402 (human); assay: iTopia affinity;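 also: peptide binding to HLA-A*2402 measured in iTopia kit format across eight serial peptide dilutions, ED50 derived from the resulting titration curve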
[13] = target: HLA-B*0801 (human); assay: iTopia affinity
[14] = target: T2, HLA-A*1501 (human); assay: iTopia net score
T2 construct: possibly meant as HLA-B*1501

[15] = target: T2, HLA-A*1501; assay: iTopia affinity
[16] = target: HLA-B*0702 (human); assay: iTopia net score
[17] = target: HLA-B*0702 (human); assay: iTopia affinity
[18] = target: HLA-B*0702 (human); assay: iTopia off-rate
[19] = target: HLA-A*1101 (human); assay: iTopia affinity;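 also: affinity derived from a titration of eight serial peptide dilutions, each run under the same conditions as the binding screen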
[20] = target: HLA-A*1101 (human); assay: iTopia net score
[21] = target: HLA-A*1101 (human); assay: iTopia off-rate
[22] = target: HLA-A*0301 (human); assay: iTopia off-rate
[23] = target: HLA-A*0301 (human); assay: iTopia net score
[24] = target: HLA-A*0301 (human); assay: iTopia affinity

| Binder | ED50 [4] | iScore [5] | binding vs positive control [6] | t1/2 [8] | t1/2 [9] | iScore [10] | iScore [11] | ED50 [12] | ED50 [13] | iScore [14] | ED50 [15] | also measured |
| --- | --- | --- | --- | --- | --- | --- | --- | --- | --- | --- | --- | --- |
| cdr2-specific murine T cell receptor of CTL clones 11 and 12 (TCR, V domains shown) V domain 1: QQQVRQSPQSLTVWEGGTTVLTCSYEDSTFNYFPWYQQFPGEGPALLISILSVSDKKEDGRFTTFFNKREKKLSLHIIDSQPGDSATYFCAASGASGGSNAKLTFGKGTKLSVKS V domain 2: DSGVVQSPRHIIKEKGGRSVLTCIPISGHSNVVWYQQTLGKELKFLIQHYEKVERDKGFLPSRFSVQQFDDYHSEMNMSALELEDSAMYFCASSLGGWAEQFFGPGTRLTVLE |  |  |  |  |  |  |  |  |  |  |  | IFN-γ release, ELISA [1]: 20 fold above background |
| LLEEMFLTV [cdr2 290-298 LLEEMFLTV] | 0.6 µM | 0.815 | > 30% | 5.9 |  |  |  |  |  |  |  | ED50 [2]: 21 µM; iScore [3]: 0.063; t1/2 [7]: 0.27 |
| ALKVKYEEL [cdr2 355-363 ALKVKYEEL] | 7 µM | 0.107 | > 30% | 0.8 | 0.38 | 0.076 | 0.099 | 10 µM | 84 µM |  |  |  |
| ELYDLRQHF [cdr2 163-171 ELYDLRQHF] | 2.7 µM | 0.132 | > 30% | 0.55 | 0.23 | 0.095 | 0.037 | 3.3 µM | 340 µM |  |  |  |
| ALFKEIFSC [cdr2 424-432 ALFKEIFSC] | 30 µM | 0.546 | > 30% | 18.7 |  |  |  |  |  | 0.053 | 8.3 µM |  |
| RQHFVYDHV [cdr2 168-176 RQHFVYDHV] | 6 µM | 0.304 | > 30% | 3.7 |  |  |  |  |  | 0.088 | 39 µM |  |
| LLHEVDTQY [cdr2 345-353 LLHEVDTQY] | 7 µM | 0.204 | > 30% | 3.5 |  |  |  |  |  | 0.121 | 39 µM |  |
| HLKKTVTML [cdr2 197-205 HLKKTVTML] | 10 µM | 0.199 | > 30% | 2.5 | 0.8 | 0.075 | 0.123 | 89 µM | 37 µM |  |  | iScore [16]: 0.022; ED50 [17]: 99 µM; t1/2 [18]: 0.11 |
| ASQQKILSL [cdr2 107-113 ASQQKILSL] | 8 µM | 0.174 | > 30% | 3.4 |  |  |  |  |  | 0.092 | 24 µM | ED50 [19]: 20 µM; iScore [20]: 0.19; t1/2 [21]: 2.45 |
| SFACLKELY [cdr2 157-165 SFACLKELY] |  |  |  |  | 0.5 | 0.157 |  | 1.4 µM |  | 0.132 | 5.3 µM | ED50 [2]: 6.9 µM; iScore [3]: 0.137; t1/2 [7]: 0.97 |
| EIDEQRTKY [cdr2 439-447 EIDEQRTKY] |  |  |  |  |  |  |  |  |  |  |  | ED50 [2]: 31 µM; iScore [3]: 0.107; t1/2 [7]: 1.26 |
| SSPTTPPEY [cdr2 414-422 SSPTTPPEY] |  |  |  |  |  |  |  |  |  |  |  | ED50 [2]: 130 µM; iScore [3]: 0.05; t1/2 [7]: 0.96 |
| DTQYSALKV [cdr2 350-358 DTQYSALKV] |  |  |  |  |  |  |  |  |  |  |  | ED50 [2]: 49 µM; iScore [3]: 0.04; t1/2 [7]: 0.4 |
| TQYSALKVK [cdr2 351-359 TQYSALKVK] |  |  |  |  |  |  |  |  |  | 0.181 | 7.6 µM | ED50 [19]: 2.8 µM; t1/2 [22]: 1.48; iScore [20]: 0.276; iScore [23]: 0.27; t1/2 [21]: 0.76; ED50 [24]: 7.5 µM |
| KQRGISLLH [cdr2 339-347 KQRGISLLH] |  |  |  |  | 1.52 | 0.184 |  | 6.9 µM |  | 0.163 | 22 µM | ED50 [19]: 22 µM; iScore [20]: 0.089; t1/2 [21]: 0.44 |
| AYRARALEL [cdr2 242-250 AYRARALEL] |  |  |  |  | 1.11 | 0.611 | 0.066 | 0.16 µM | 26 µM |  |  | iScore [16]: 0.033; ED50 [17]: 23 µM; t1/2 [18]: 0.15 |
| AVKQRGISL [cdr2 337-345 AVKQRGISL] |  |  |  |  | 1.6 | 0.13 | 0.139 | 20 µM | 22 µM | 0.16 | 15 µM | iScore [16]: 0.293; ED50 [17]: 2.4 µM; t1/2 [18]: 1.18 |
| QMLQSEHPF [cdr2 259-267 QMLQSEHPF] |  |  |  |  | 0.25 | 0.082 |  | 53 µM |  | 0.257 | 8.3 µM |  |
| TLLDRNTEL [cdr2 37-45 TLLDRNTEL] |  |  |  |  | 1.39 | 0.08 | 0.045 | 56 µM | 360 µM |  |  |  |
| SQSLLEEMF [cdr2 287-295 SQSLLEEMF] |  |  |  |  | 0.24 | 0.048 |  | 14 µM |  | 0.062 | 29 µM |  |
| AVQTSRAAA [cdr2 378-386 AVQTSRAAA] |  |  |  |  |  |  |  |  |  | 0.062 | 51 µM | iScore [16]: 0.153; ED50 [17]: 11 µM; t1/2 [18]: 0.9 |
| TGAYRARAL [cdr2 240-248 TGAYRARAL] |  |  |  |  |  |  | 0.085 |  | 18 µM |  |  | iScore [16]: 0.082; ED50 [17]: 5.7 µM; t1/2 [18]: 0.22 |
| RARALELEA [cdr2 244-252 RARALELEA] |  |  |  |  |  |  |  |  |  | 0.118 | 48 µM | iScore [16]: 0.08; ED50 [17]: 14 µM; t1/2 [18]: 0.47 |
| EQRTKYRSL [cdr2 442-450 EQRTKYRSL] |  |  |  |  |  |  | 0.16 |  | 15 µM |  |  | iScore [16]: 0.031; ED50 [17]: 100 µM; t1/2 [18]: 1.59 |
